Measurements reported in article PMC3534030 (2012).

Biological target: EGFR (Homo sapiens, UniProt P00533)
Assay: 125I-EGF radioligand saturation binding on human bone marrow mesenchymal progenitor cells

B1: EGF (protein)
chain: NSYPGCPSSYDGYCLNGGVCMHIESLDSYTCNCVIGYSGDRCQTRDLRWWELR
modifications: 125I-labeled EGF
Kd: 0.0349 nM
